# Measurements taken from paper PMC9972897 (Science immunology, 2023).
# Numbering of substitutions follows the chain as printed.
# B1: rbd.048 (antibody, V domains shown)
# VH: EVQLVESGGGLVQPGGSLRLSCAASGFTVSSNYMTWVRQAPGKGLEWVSVIYSGGSTFYTDSVKGRFTISRDNSKNTLYLQMNSLRAEDTAVYYCARDVVYYGMDVWGQGTTVTVSS
# VL: DIQMTQSPSSLSASVGDRVTITCRASQSISSYLNWYQQKPGKAPKLLIYAASSLQSGVPSRFSGSGSGTDFTLTISSLQPEDFATYYCQESYSNSPYTFGQGTKLEIK
# B2: sd1.033 (antibody, V domains shown)
# VH: QVQLVQSGAEVKKPGSSVKVSCKASGGVYSTYAVSWVRQAPGQGLEWIGGIIPMFGTANYAQNFQGRVTITADESTRTAYMEVSSLRSEDTAVYYCASPSAPTYYYDSSRYYSFDYWGQGTLVTVSS
# VL: EIVLTQSPGTLSLSPGERATLSCRASQSVSSNFLAWFQQKPGQPPRLLIYGASSRATGIPDRFSGSGSGTDFTLTISRLVPEDFAVYFCQQYGSSRYSFGQGTKLEIK
# B3: sd1.103 (antibody, V domains shown)
# VH: QVQLVQSGAEVKKPGSSMKVSCKASGGTLNNYAIIWVRQAPGQGLEWMGGIIPMFGAANYAQNFQGRVTITADESTRTAYLELSSLRSEDTAMYYCARVVIPYLGAHYYHYGVDVWGQGTTVTVSS
# VL: B2 VL with S30T, F33Y, F37Y, P44A, T57A, S64N, V80E, F88Y, S98T
# B4: sd1.032 (antibody, V domains shown)
# VH: QVQLVQSGAEVKRPGSSVKVSCKASGGTFNNYAMTWVRQAPGQGLEWMGGIIPMLGTENYAQKFQGRVTITADESTSTAHMELSSLRSEDTAVYYCARLTVPTPHSYYSYGLDAWGQGTTVTVSS
# VL: QSALTQPASVSGSPGQSITISCTGTSSDVGSYNLVSWFQQHAGRAPKLMIYEGNKRPSGISNRFSGSKSGNTASLTISGLQAEDEADYYCCSYAGSSTHVFGTGTKVTVL
# B5: sd1.034 (antibody, V domains shown)
# VH: EVQLVESGGGVVQPGRSLRLSCAASGFSFSNYGMHWVRQAPGKGLEWVAVISYDGSHKSFADSVKGRFTISRDNSKNTLNLQMNSLRREDTAVYYCATDQGGSLGYWGQGTLVTVSS
# VL: QSALTQPASVSGSPGQSITISCTGTSGDVGGYNYVSWYQHHPGKAPKLMIYDVSNRPSGVSNRFSGSKSGNTASLTISGLQAEDEADYYCSSYTSTSTSWVFGGGTKLTVL
# B6: sd1.107 (antibody, V domains shown)
# VH: QVQLVQSGAEVKKPGSSVKVSCKASGGTFSSYAISWVRQAPGQGLEWMGGIIPMFGTTNYAQKFQGRVTITADESTSTAYMELSSLRSEDTAVYYCARVTHLNWRRGYEVGRISGAFDIWGQGTMVTVSS
# VL: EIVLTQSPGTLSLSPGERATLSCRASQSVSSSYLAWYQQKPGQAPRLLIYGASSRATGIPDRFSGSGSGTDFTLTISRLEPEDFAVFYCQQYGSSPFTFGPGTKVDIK
# B7: sd1.127 (antibody, V domains shown)
# VH: EVQLVESGGALVKPGGSLTLSCVASGFTFSHAWMTWVRQAPGKGLEWVGRIKTKTEGGTIDYAAPLRGRFTISRDDSKNTLYLRMNSLKIEDTAKYYCTTHSSPDYWGQGTLVTVSS
# VL: DIQMTQSPSSLSASIGDRVTITCRASQGIGNSLLWYQQKRGKVPKLLIYAASTLQSGVPSRFSGSGSGTDFTLTISSLQPEDVATYYCQRYNSAPLTFGGGTKVEIK
# B8: rbd.045 (antibody, V domains shown)
# VH: QVQLQESGPGLVKPSETLSLTCTVSGGAFRSFFWTWIRQPPGKGLEWIGNIYYSGSTNYNPSLKSRVTISQDMSENQFSLKLSSVTAADTAVYYCARSQWLRGNFDHWGQGILVTVSS
# VL: NFMLTQPHSVSESPGKTVTISCTATSGYIASNYVQWYQQRPGSAPTTVIYEDNQRPSGVPDRFSGSIDSSSNSASLTISGLKPEDEADYYCQSFDTAYAVFGGGTQLTVL
# B9: sd1.151 (antibody, V domains shown)
# VH: EVQLVESGGGLVKPGGSLRLSCAVSGFTFSNAWMTWVRQAPGKGLEWVGRIKTKPEGGTTDYATPVKGRFTISRDDSIDTLYLQMNSLKTEDTAVYYCSTFSSPDHWGQGTLVTVSS
# VL: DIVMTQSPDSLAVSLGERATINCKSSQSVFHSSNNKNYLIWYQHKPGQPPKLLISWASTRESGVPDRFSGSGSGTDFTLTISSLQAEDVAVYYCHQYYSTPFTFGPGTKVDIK
# B10: sd1.108 (antibody, V domains shown)
# VH: QVQLVQSGAEVKKPGASVKVSCKASGYTFTSYYIHWVRQTPGQGLEWMGIINPRGGSTSYPQKFQGRVSMTRDTSTSTVFMELSSLRSDDTAVYYCAREHREDTAMDNQPSDSWGQGTLVTVSS
# VL: DIVMTQSPDSLSVSLGERATINCKSSRSVFYSSNNKSYLAWYQQKPGQPPKLLIYWASTRESGVRDRFSGSGSGTDFTLTISSLQAEDVAVYYCQQYYNTPYTFGQGTKLEIK
# B11: rbd.049 (antibody, V domains shown)
# VH: QLQLQESGPGLVKPSETLSLSCTVSGGSISSKSDYWGWIRQSPGKGLEWIGSIYYTGTTYYNPSLKSRVSISLDKSKNQFSLKLNSLTAADTALYYCARDPSIAVATTVYFDAWGQGTLVTVSS
# VL: EIVLTQSPGTLSLSPGERATLSCRASESVKSNYLAWYQQKLGQPPRLLIFGASTRATGIPDRFSGSGSGTDFTLTISRLEPEDFAVYYCQQYHTSPPRYTFGQGTKLEIK
# B12: sd1.100 (antibody, V domains shown)
# VH: QVQLQESGPGLVKPSQTLSLTCSVSGDSITSGNYYWSWIRQHPGKGLEWIGNIFHTGNTYYNPSLKSRVTISIDTSKNQFSLKLSSVTAADTALYYCARDHKRLEGDWFDPWGQGSLVTVSS
# VL: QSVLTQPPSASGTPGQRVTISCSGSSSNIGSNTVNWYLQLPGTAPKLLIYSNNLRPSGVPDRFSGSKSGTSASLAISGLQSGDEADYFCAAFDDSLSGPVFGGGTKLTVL
# B13: rbd.035 (antibody, V domains shown)
# VH: EVQLLESGGGLIEPGGSLRLSCAASGFPFNTFAMTWVRQPPGKGLEWVATISSRGDYTFYADFVKGRFSISRDNANNALWLDMSGLRAEDTALYYCAKGESGYDLYLYGLDLWGQGTTVTVSS
# VL: DIQMTQSPSSLSASVGDGVTITCRASQNINNYLSWYQKKAGKAPKLLIYGASTLHSGVPSRFSGSGSGTDFTLTISSLQPEDFASYYCQQNSPTPPWTFGQGTKVEIK
# B14: rbd.046 (antibody, V domains shown)
# VH: EVQLVESGGGVVQPGRSLRLSCAASGFTFSHYGMHWVRQAPGKGLEWVAVISYDGSNKYYADSVKGRFTISRDNSKSTLYLQMNSLRAEDTAVYYCAKGEWYYDIFTGYYPYWGQGTLVTVSS
# VL: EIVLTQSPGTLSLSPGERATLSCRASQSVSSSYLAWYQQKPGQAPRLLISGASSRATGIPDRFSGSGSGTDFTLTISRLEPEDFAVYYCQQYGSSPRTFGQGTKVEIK
# B15: sd1.047 (antibody, V domains shown)
# VH: EVQLVESGGGVVEPGRSLRLSCVASGFPFKNYGMHWVRQAPGKGLEWMAVISYDGRLEYYAESVQGRFTISRDTSRKTLYLQMDSLRVDDTAVYYCAKDGVMGFCSGDDCTPPFDSWGQGTLVTVSS
# VL: QSALTQPASVSGSPGQSITISCTGTSSDVGGYNYVSWFQQYPGKAPQLLIYEVSNRPSGVSNRFSGSKSGNTASLTISGLQAEDEADYYCSSYAGSPYVFGIGTRVTVL
# B16: sd1.039 (antibody, V domains shown)
# VH: EVQLVQSGAEVKKPGESLKISCKASGYSFPTYWIGWVRQMPGKGLEWMGIIYPGDSDTRYSPSFQGQVTISADKSISTAYLQWSSLKASDTAIYYCARYGDSHIDSWGQGTLVTVSS
# VL: QSVLTQPRSASASLGASVTLNCTLSSGYSKYKVEWYQQRPGKGPRFLMRVGAGGIVGSKGDGIPDRFSVLGSGLNRYLIIKNIQQEDESDYHCGADHGSGSNFAYVVFGGGTKLTVL
# B17: rbd.043 (antibody, V domains shown)
# VH: QVQLVQSGAEVKKPGSSVKVSCKVSGGSFSNYGISWVRQAPGQGLEWMGGIIPLFGPADYAQKVQGRVTITADKSTSTAYMELRSLRSEDTAVYFCARGVEIVATIVGPLVREDHYYYYGMDVWGQGTTVTVSS
# VL: not shown
# B18: sd1.132 (antibody, V domains shown)
# VH: QVQLVQSGTEVKKPGSSVKVSCKASGGTFSSYAISWVRQAPGQGLEWMGGIIPMFGAPNYAQKVQGRVTITADESTSTAYMELSSLRSEDTAVYYCARMEYSNSPGRGGYYFYSNGMDVWGQGTTVTVSS
# VL: EIVLTQSPATLSLSPGERATLSCRASQSVSTYLAWLQQKPGQAPRLLMYDASNRASGIPARFSGSGSGTEFTLTISSLEPEDFAVYYCQQRTYWPLTFGGGTKVEIK
# B19: sd1.150 (antibody, V domains shown)
# V domain 1: EVQLVESGGGVVQPGRSLRLSCAASGFTFSSHGMHWVRQAPGRGLEWVAVISFDGRNKFYVDSVKGRFTISRDNSKNTLYLHMNSLRAADTAVYYCAKDHDPDGSGSYFSNWFDAWGQGTLVTVSS
# V domain 2: SYELTQPPSVSVSPGQTASITCSGDKLGDKYAYWYRQKPGQSPVVVIYQDNKRPSGIPERFSGSNSGNTATLTISGTQAMDEADYYCQAWDTYSGVFGTGTQVTVL
# B20: rbd.038 (antibody, V domains shown)
# VH: QVQLVQSGAEVKKPGASVKVSCKASGYTFSGYYMHWVRQAPGQGLEWVGWISPTSGGTKYAQKFQGRVTMTRDTSITTVYMELNRLRSDDTAVYYCAREPFPYCTSDICHSNYFYYYAMDVWGQGTTVTVSS
# VL: QSALTQPPSASGSPGQSVTISCTGSSSDLGDHNYVSWYQQHPGKAPKVMIYEVSKRPSGVPDRFSGSKSGNTASLTVSGLQAEDEADYYCSSYAGSLYVFGTGTKVTVL
# B21: rbd.031 (antibody, V domains shown)
# VH: EVQLVESGGGVVQPGRSLRLSCAASGFTFKTYGMHWVRQAPGKGLEWVAVISYEGSNEYYAESVKGRFTISRDNSKNTLYLHMNSLRAEDTAVYYCAKGEYYYHSSTYYYLDYWGRGTLVTVSS
# VL: DIQMTQSPSTLSASVGDRVTITCRASQSISSWLAWYQQKPGKAPKVLIYDASSLQSGVPLRFSGSGSGTEFTLTISSLQPDDFATYYCQQYDTYWTFGQGTKVEIK
# B22: sd1.129 (antibody, V domains shown)
# VH: QVQLVQSGAEVKRPGSSVKVSCKASGGAFSNYAISWVRQAPGQGLEWMGGIIPIFGTTNYAQRFQGRVTISADESTGTAYMELSSLRFADTAIYYCARADAYSGSYYPSANWFDPWGQGTLVTVSS
# VL: EIVLTQSPATLSLSPGERATLSCRASQSVSNYLAWYQQKPGQAPRLLIYDASNRATGIPARFSGSGSGTDFTLTISSLEPEDFAVYYCQQRQNWPPGWTFGQGTKVEIK
# B23: sd1.102 (antibody, V domains shown)
# VH: QVQLVQSGAEVKKPGSSVKVSCKASGGTFSSYAISWVRQAPGQGLEWMGGIIPLYGTANYAQKFQGRVTITADESTSTTYMELSSLTSEDTAVYYCVRFRGGDYYYYYGMDVWGQGTTVTVSS
# VL: EIVMTQSPATLSVSPGESATLSCRASQTVSTNLAWYQQKPGQAPRLLIFGASTRATGIPARFSGSGSGTEFTLSISSLQSEDFAVYYCHQYNSRRTFGQGTKLEIK
# Biological target: SD1-RBD of SARS-CoV-2 S (ancestral), aa 319-591 (SARS-CoV-2, ancestral (Wuhan-Hu-1; …, UniProt P0DTC2)
row,Binder,binding result
1,B1,binds
2,B2,binds
3,B3,binds
4,B4,binds
5,B5,binds
6,B6,binds
7,B7,binds
8,B8,binds
9,B9,binds
10,B10,binds
11,B11,binds
12,B12,binds
13,B13,binds
14,B14,binds
15,B15,binds
16,B16,binds
17,B17,binds
18,B18,binds
19,B19,binds
20,B20,binds
21,B21,binds
22,B22,binds
23,B23,binds
